This assay addresses human trimeric IL-2 receptor (IL-2Rα, IL2Rβ and reconstituted transgenic wild-type GCR) on GnR cells (human) (UniProt P01589). As to the kind of experiment: cell-based or functional assay.

Regarding “IL-15 (from UniProt P40933 49-162) (ligand)”, the EC50 of the mRuby2 response (STAT5-mRuby2 reporter) came to 0.56 nM.

(Values after patent EP4293040A1.)
